± gives the uncertainty stated by the source.
Assay: amyloid nucleation score (Sup35N fusion, yeast selection) (log enrichment); library NNK3; higher = more nucleation; inactive = no reads after selection
How it was run: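 Peptides of 20 random codons fused to Sup35N were expressed in psi-negative yeast, induced 24 hours with 100 μM copper sulfate, then grown 7 days at 30°C on medium lacking adenine and uracil. Input and output plasmid inserts were Illumina-sequenced. Nucleation score is the DiMSum log enrichment of output over input reads, centred on the mode score of non-aggregating sequences, excluding sequences with under 100 input reads. Random libraries had three technical output replicates.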

Substance	amyloid nucleation score
TLVGYLIARLFWR	inactive
TLWMGF	inactive
TLYCRYFG	1.01 ± 0.23
TMAEGL	inactive
TMIFMLVI	inactive
TMLDLGDKYVMLFEQVDSFF	inactive
TMSRRAARMQCAILVPSRLL	inactive
TNDFVNV	inactive
TNDTLFFVTSLVADPVERIS	inactive
TNGKEWWNCVYGERTVNAFA	inactive
TNGLVLHRSWLEFFLYYTQR	inactive
TNLWFKNLSMFMGIVSLART	inactive
TNNAIGVFSLECIGFPEAGR	inactive
TNNEDKFWRVVLNLGTVTSD	inactive
TNRPMNGSYNNMWSRINLMV	inactive
TNTNTCL	inactive
TNVSEFQALTWMNTWYSAFS	inactive
TNVTANGVKPHPYPMRSPAT	inactive
TPKTLDWAYGYNIVSGKAIN	inactive
TPLDDLMCQLCSGYPLVILP	inactive
TPRKTLSDVLFFRLILS	inactive
TPRLSMDHTFVRWDCV	inactive
TPSLAIKK	inactive

Substance	amyloid nucleation score
TQAWSTL	inactive
TQDRYAISIRLVSTQLKLMS	inactive
TQESRDIGFTAPRGRICTQG	inactive
TQFTLCTIHSVLCVNA	2.06 ± 0.078
TRASRRKSHSTSMDLPIRRH	inactive
TRCYRASE	inactive
TRFLFCFNWIWGEPVACEYE	2.39 ± 0.07
TRKMLLVVSKYVMTPYGFGL	inactive
TRLCFIAVPLSFFMVWDTSR	inactive
TRLSSFRKIKEIYLLTQWKP	inactive
TRNIMRSIMVPSTWRVFITV	inactive
TRNMIMRRKSTLRHLVTEAD	inactive
TRRGSDLPSVLAMFLSKSTR	inactive
TRRSKGQFIYCPSNGMKCSG	inactive
TRSRFWRRTKLPLVSVRYHN	inactive
TRSVFIHVYW	0.095 ± 0.5
TRWRLSVYERVGARRDTPLC	inactive
TRWRSLSEGPSVGLEITPRF	inactive
TRYCVVNW	-0.511 ± 0.56
TRYPFQWLLRVGWKGAHLGM	inactive
TSFGMSTPCQAFARSVDDRG	inactive
TSGGTFQDATSHNSNSHMWK	inactive
TSGWEFRRFPNFQLLILSCF	inactive

Substance	amyloid nucleation score
TSLEN	inactive
TSLGNGVSHGTLGFILTVNT	inactive
TSNALYLLLLRHLYNMLLHV	inactive
TSRTGRMEYISRELGQRVWM	inactive
TSSWYFILDVHCGSEGNSEA	0.438 ± 0.28
TTCYTLFSTDENDNSKWICG	inactive
TTKQKV	inactive
TTNSQAWPMLTAVRLVYNEG	inactive
TTRRSTYGFEIKYILIVFVH	inactive
TTSLMSKVFY	inactive
TTTFKLGISKSLDVSTRLRG	0.31 ± 0.14
TVAMR	inactive
TVFLDIISDVLILGGVRCRR	1.26 ± 0.13
TVGVTYIKVWNVPNILYRGC	0.769 ± 0.15
TVLCAC	inactive
TVLCRYVAYLVVSANYLDEC	inactive
TVMLRRTRYVVYTVYRVVDV	inactive
TVMVKSSYGLNCFGRSF	0.743 ± 0.13
TVNHDAIRELTDTSTDIFMS	inactive
TVPFTPIICESVFSD	inactive
TVPVSSCGGLRNEPHDVRFG	inactive
TVRFEGIGSHVRHTFCALDF	inactive
TVRGEVVGPSDNREKIQKQW	inactive

Substance	amyloid nucleation score
TVVMWSSKDREVDSIDMSFV	inactive
TVYLACIC	inactive
TVYSRHIDRGYWIADGCSRV	inactive
TWCFDSACNANGTWR	inactive
TWDICFSTLFLMPRMWFGHL	inactive
TWELHV	-0.428 ± 1
TWLGLLCREGSSNWV	inactive
TWRKGVSVLVLSGFVVTNQR	inactive
TWSACPTLCLD	-0.392 ± 0.98
TWSSLFMIFQYTCAGCWDFK	1.52 ± 0.068
TWTMDSSLWMLWAVQVVEGR	inactive
TYGGLFLVHTVYVVALNWVR	inactive
TYGSVNCVSLMCSVVVLFAM	inactive
TYHWLNRGYRMGSLENRLLK	inactive
TYLGDSFSILHLIQGDWFIE	inactive
TYTFLSPVIDYKLYVYQCRT	1.72 ± 0.067
VACRVVGNSSVWVFRRHVEN	inactive
VAETYLRTA	inactive
VAFFSGWQIVVLFMKVL	inactive
VAGSRCMDAWVKWCMVIRMF	0.247 ± 0.25
VARIIYQRIW	inactive
VARPCFRERNHSPI	inactive
VARSSQSISSMHMTMRYKCA	inactive

Substance	amyloid nucleation score
VASSKQYLGTVTYLDGVA	inactive
VATKQVVQGLMSPNN	inactive
VCFFGLYVLKDN	inactive
VCHLWSLTVYGAVFQHLNFM	inactive
VCIVVGARGGGYVLRTPLRG	inactive
VCKVTFMCAFRHDYSKRYYG	0.35 ± 0.48
VCLCNIRDMAG	inactive
VCNSYCMPRPRILQSQGGMG	inactive
VCREGLRDSRSAGGFFSYII	inactive
VCSFCCFGTVRSL	2.1 ± 0.058
VCSLVLWSLSSWWTRYGTLR	inactive
VCSSINPFQNMTSFKVWIKS	inactive
VCTKWGQYFCPYPVLCGWVR	inactive
VCVVWNIVDQAYNMW	0.253 ± 0.34
VDETPSSHMSIPVMERVLCG	inactive
VDHGRD	inactive
VDIGYQMQGFLGICSDY	inactive
VDIVRVSCEALSLATDCQFL	inactive
VDNCIWLFLSTFYDGCVVML	inactive
VDNHACPWTGGLHFRKLWNG	inactive
VDNWFVFFYGYSGLLYGSHY	inactive
VDRVYTLREFEVHGGTWFGV	inactive
VDRYLCNFSGGTLYGSLSQD	inactive

Substance	amyloid nucleation score
VDVCITFCWIARLMV	inactive
VDYKLFNFDGVCITTVFVHY	2.24 ± 0.095
VEAEHYSRRNEKVFRSNMKW	inactive
VEELKYRHNALNFRKNVQSL	inactive
VEEYHNQ	0.858 ± 0.13
VEHDNKGISQAAVMFG	inactive
VEHFNGHTRTVGCLFKRDLR	inactive
VERHFAVDERP	-0.682 ± 2.5
VFECLTFF	-0.872 ± 1
VFESCEYSRQVVGNFRDEM	inactive
VFFAVF	inactive
VFGGNVIKSYVKITFQPGFD	2.22 ± 0.061
VFGKCLCTNCLEEVCIRFDL	inactive
VFKSSGPAVTSYWY	inactive
VFLACNYFILSRNDLKWGYP	2.56 ± 0.06
VFLILFVLPLFYLNDSPGCA	inactive
VFLVTSRVNIRCVVLHIINE	1.08 ± 0.11
VFMIVRQEGSSDFFFDFSSV	1.42 ± 0.11
VFNFFYAEMGLMIKFWIDNL	1.08 ± 0.081
VFNSSKDLVSEKEPLRYMIG	inactive
VFQRVNISVCINVVKFMSSM	1.65 ± 0.069
VFSDHVLSF	inactive
VFSKSLGI	inactive

Substance	amyloid nucleation score
VFTFFSMCMTPSYYPCRLAC	inactive
VFTPLCAYVVGYLYEVCGDD	inactive
VFVKCWNVGSCIATDEYMSE	2.2 ± 0.078
VFVTRYKTKTPCLMTVRKEL	inactive
VFWLKVSVSLFPVLYGRS	inactive
VFYGLYF	inactive
VGAHSYHVRTPDTES	0.221 ± 0.47
VGDVKAISVGCVGVLEFSAA	inactive
VGEVGGYGEFAE	inactive
VGGFFTSYKNYTK	0.671 ± 0.27
VGGFKTILSIRRAAKCLCVG	inactive
VGGYI	inactive
VGHSNNQFSGFEMCHDNTLL	inactive
VGLLVMSVGIERTLWE	inactive
VGNFSFD	0.845 ± 0.16
VGNLGS	inactive
VGNSHASIHPCKVICSLACD	inactive
VGQYDTFGLRHHGGYRMRRG	inactive
VGSGTQSWVRNEMRSMLDLW	inactive
VGSLVHLGLGWIRTLLLYGV	inactive
